Laboratory results published in US20070178098A1 (Merck KGaA, published 2007).

T1: human IL-6Ralpha (human, UniProt P08887 20-358, limits assumed)
T1 construct: also called IL-6Ralpha alone
T1 sequence (looked up): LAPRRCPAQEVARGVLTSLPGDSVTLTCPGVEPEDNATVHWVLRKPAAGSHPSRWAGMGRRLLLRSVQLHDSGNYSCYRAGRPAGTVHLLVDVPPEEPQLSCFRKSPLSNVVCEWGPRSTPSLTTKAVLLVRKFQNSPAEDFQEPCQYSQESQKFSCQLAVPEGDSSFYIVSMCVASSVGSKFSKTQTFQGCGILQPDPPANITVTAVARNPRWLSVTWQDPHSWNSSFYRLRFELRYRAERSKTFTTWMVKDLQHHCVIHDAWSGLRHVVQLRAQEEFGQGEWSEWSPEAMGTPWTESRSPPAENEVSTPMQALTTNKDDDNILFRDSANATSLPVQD

T2: Fc-IL6 (human IL-6; mouse Fc)
T2 construct: also called Mature Fc-IL6
T2 chain: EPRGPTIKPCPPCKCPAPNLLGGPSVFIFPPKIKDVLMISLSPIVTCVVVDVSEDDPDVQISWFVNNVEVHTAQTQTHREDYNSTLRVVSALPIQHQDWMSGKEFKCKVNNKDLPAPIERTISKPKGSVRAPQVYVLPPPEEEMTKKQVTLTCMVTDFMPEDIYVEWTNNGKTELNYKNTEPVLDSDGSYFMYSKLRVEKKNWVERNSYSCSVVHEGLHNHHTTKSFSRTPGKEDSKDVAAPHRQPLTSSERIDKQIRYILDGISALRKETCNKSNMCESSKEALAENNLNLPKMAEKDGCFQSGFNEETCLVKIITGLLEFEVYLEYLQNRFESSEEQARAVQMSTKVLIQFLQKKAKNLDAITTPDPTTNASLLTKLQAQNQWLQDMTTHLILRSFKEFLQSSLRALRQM


Key:
Fc-IL6Ralpha-IL6 [1] = molecular target: T3, Fc-IL6Ralpha-IL6 (human IL-6Ralpha and IL-6; mouse Fc); experiment: plate binding assay read as OD450, antibody titrated on Fc-IL6Ralpha-IL6
T3 construct: Fusion of a mouse IgG gamma2a Fc, the extracellular domains of human IL-6Ralpha and human IL-6; also called Fc-IL6Ralpha-IL6 fusion protein; muFc-IL6Ralpha-IL6

human IL-6Ralpha = molecular target: T1, human IL-6Ralpha; experiment: plate binding assay read as OD450, antibody titrated on IL6Ralpha alone
human IL-6 [2] = molecular target: T4, human IL-6 (human, UniProt P05231 30-212); experiment: Biacore, antibody immobilized on chip, IL-6 passed over
T4 construct: The Biacore text says only 'IL-6 protein'; also called interleukin-6; IL-6 protein
Protocol: The antibodies were immobilized on a chip; IL-6 protein was passed over the chip, and on-rates and off-rates were measured.

Fc-IL6Ralpha-IL6 [3] = molecular target: T3, Fc-IL6Ralpha-IL6; experiment: competition assay: antibody titrated, inhibition of the binding of Fc-IL6Ralpha-IL6 to gp130-Fc; half of the antibody's own maximal inhibition
Protocol: To further characterize the antibodies that recognize IL-6, the following competition tests were performed. First, the ability of the monoclonal antibodies to inhibit the interaction between Fc-IL6Ralpha-IL6 and gp130-Fc was tested. The inhibition assays were performed based on the methods described by Scheller et al. J. Immuno. Methods, 291:93-100 (2004), the teachings of which are hereby incorporated by reference. […] Second, inhibition of the interaction between Fc-IL6 and Fc-IL6Ralpha by the antibodies was tested.

Fc-IL6 = molecular target: T2, Fc-IL6; experiment: binding to immobilized Fc-IL6 (screen of paragraph 73)
human IL-6 [4] = molecular target: T4, human IL-6; experiment: plate binding assay read as OD450, antibody titrated on IL6 (form of the coated IL-6 not given for this figure)
Fc-IL6Ralpha-IL6 [5] = molecular target: T3, Fc-IL6Ralpha-IL6; experiment: cell-based or functional assay

| EC50 (read off the curve) (Fc-IL6Ralpha-IL6 [1]) | binding result (human IL-6Ralpha) | Kd (human IL-6 [2]) | koff (human IL-6 [2]) | kon (human IL-6 [2]) | IC50 (read off the curve) (Fc-IL6Ralpha-IL6 [3]) | binding result (Fc-IL6) | EC50 (read off the curve) (human IL-6 [4]) | haptoglobin level in mice given muFc-IL6Ralpha-IL6, relative to the positive control group at 24 hours (Fc-IL6Ralpha-IL6 [5]) | Binder |
| --- | --- | --- | --- | --- | --- | --- | --- | --- | --- |
| ~3 ng/mL | no binding (tested: 1 ug/ml) | 0.135 nM | 0.00011 s⁻¹ | 800000 M⁻¹ s⁻¹ | ~200 ng/mL | binds | ~3 ng/mL | – | Mab#309 (antibody, V domains shown, Mouse IgG monoclonal from a hybridoma; V regions were amplified with primers specific for mouse IgG gamma1 VH and Vk; also called antibody 309) VH: EVKLEESGGGLVQPGGSMKLSCVASGFTFSNYWMNWVRQSPEKGLEWVAEIRLKSNKGATHYAESVKGRFTISRDDSKSSVYLQMNNLRAEDTGIYYCASLLYDGYLHWGQGTLVTVSA VL: not shown |
| ~3 ng/mL | no binding (tested: 1 ug/ml) | 0.0075 nM | 1.4e-05 s⁻¹ | 1.8e+06 M⁻¹ s⁻¹ | ~200 ng/mL | binds | ~5 ng/mL | ~30% | Mab#471 (antibody, V domains shown, Mouse IgG monoclonal from a hybridoma; V regions were amplified with primers specific for mouse IgG gamma1 VH and Vk) VH: EVKFEESGGGLVQPGGSMKLSCVASGFSFSNYWMNWVRQSPEKGLEWVAEIRLTSNKQAIYYAESVKGRFTISRDDSKSSVYLQMNNLRAEDTGIYYCASLFYDGYLHWGQGTLVTVSA VL: not shown |
| ~4 ng/mL | no binding (tested: 1 ug/ml) | 2 nM | 0.0048 s⁻¹ | 2.4e+06 M⁻¹ s⁻¹ | ~100 ng/mL | binds | ~4 ng/mL | – | Mab#195 (antibody, V domains shown, Mouse IgG monoclonal from a hybridoma; V regions were amplified with primers specific for mouse IgG gamma1 VH and Vk; also called antibody 195) VH: EVKLEESGGGLVQPGGSMKLSCVASGFTFSNYWMNWVRQSPEKGLEWVAEIRLKSNNYATHYAESVKGRFTISRDDSKSSVYLQMNNLRAEDTGIYYCTREDYYGYPDYWGQGTTLTVSS VL: not shown |
| ~6 ng/mL | no binding (tested: 1 ug/ml) | 0.047 to 0.106 nM | 0.00012 to 0.00026 s⁻¹ | 2.5e+06 to 2.6e+06 M⁻¹ s⁻¹ | ~200 ng/mL | binds | ~5 ng/mL | – | Mab#476 (antibody, V domains shown, Mouse IgG monoclonal from a hybridoma; V regions were amplified with primers specific for mouse IgG gamma1 VH and Vk; also called antibody 476) VH: EVKLEESGGGLVQPGGSMKLSCAASGFTFSDAWMDWVRQSPEKGLEWVAEIRSKANNHATYYAESVKGRFTISRDDSKSSVYLQMNSLRAEDTGIYYCTTPTLYGAMDYWGQGTSVTVSA VL: not shown |
